Changes are numbered by the printed parent chain.
B1: CD26-01G scFv (scFv, part only; not given: VL-VH linker and detection tag, V domains shown, not shown: another chain or arm of the molecule; small tags and cut ends)
VL: DIQMTQSPSSLSASVGDRVTITCRASQDVNNSVAWYQQKPGKAPKLLIFSPTGLYSGVPSRFSGSGSGTDFTLTISSLQPEDFATYYCQQYFDFPLTFGQGTKVEIK
VH: EVQLVESGGGLVQPGGSLRLSCAASGFTIGNYGIHWVRQAPGKGLEWVAWIGPSGGYTFYADSVKGRFTISADTSKNTAYLQMNSLRAEDTAVYYCARFDVHGFHGMDYWGQGTLVTVSS
B2: CD26-01F scFv (scFv, part only; not given: VL-VH linker and detection tag, V domains shown, not shown: another chain or arm of the molecule; small tags and cut ends)
VL: B1 VL with N30W, N31G, S32Y, P51S, T52R, G53S, D93N, F94W, L96I
VH: EVQLVESGGGLVQPGGSLRLSCAASGFTISDYSIHWVRQAPGKGLEWVASIWPYGGFTSYADSVKGRFTISADTSKNTAYLQMNSLRAEDTAVYYCARFHSSSGDMDYWGQGTLVTVSS
B3: CD26-07H scFv (scFv, part only; not given: VL-VH linker and detection tag, V domains shown, not shown: another chain or arm of the molecule; small tags and cut ends)
VL: DIQMTQSPSSLSASVGDRVTITCKSNQNLLYSHGRTYLNWYQQKPGKAPKLLIFGTSHLYSGVPSRFSGSGSGTDFTLTISSLQPEDFATYYCYQGYHVPFTFGQGTKVEIK
VH: EVQLVESGGGLVQPGGSLRLSCKASGYTFARFGMYWVRQAPGKGLEWVAFIAPNHGYTFYADSVKGRFTISADTSKNTAYLQMNSLRAEDTAVYYCARGHWYHGYMDYWGQGTLVTVSS
B4: CD26-03G scFv (scFv, part only; not given: VL-VH linker and detection tag, V domains shown, not shown: another chain or arm of the molecule; small tags and cut ends)
VL: B1 VL with N30S, N31S, F49S, S50Y, T52G, G53W, Y91F, F92G, L96M
VH: B1 VH with S54Y, D100N, V101N, H102L, G103L, F104W, H105N
B5: CD26-04E scFv (scFv, part only; not given: VL-VH linker and detection tag, V domains shown, not shown: another chain or arm of the molecule; small tags and cut ends)
VL: B1 VL with N31D, S32G, F49Y, S50W, P51A, T52S, G53Y, Y91S, F92W, D93N
VH: EVQLVESGGGLVQPGGSLRLSCAASGFTINDGFIHWVRQAPGKGLEWVAGIWPFGGSTSYADSVKGRFTISADTSKNTAYLQMNSLRAEDTAVYYCARFDVVDWGVMDYWGQGTLVTVSS
B6: CD26-01D scFv (scFv, part only; not given: VL-VH linker and detection tag, V domains shown, not shown: another chain or arm of the molecule; small tags and cut ends)
VL: B1 VL with N31S, S32N, S50G, P51S, T52G, F92S, D93S, F94Y, I106T
VH: B2 VH with S30N, Y32S, S33Y, S50W, S59Y, H100L, S101G, G104S, D105I
B7: CD26-03B scFv (scFv, part only; not given: VL-VH linker and detection tag, V domains shown, not shown: another chain or arm of the molecule; small tags and cut ends)
VL: B1 VL with N30Y, N31Y, S32F, F49S, S50W, D93S, F94Y, L96I
VH: B2 VH with S30G, D31N, Y32S, S33Y, S50G, W52G, G55W, H100N, S101G, D105F
B8: CD26-12D scFv (scFv, part only; not given: VL-VH linker and detection tag, V domains shown, not shown: another chain or arm of the molecule; small tags and cut ends)
VL: B1 VL with N30Y, N31S, S32W, F49Y, S50G, T52G, G53S, F92Y, D93N, F94Y
VH: B2 VH with S30N, D31S, Y32S, S33Y, S50G, W52G, G55W, H100Y, S103Y, D105F
B9: CD26-10B scFv (scFv, part only; not given: VL-VH linker and detection tag, V domains shown, not shown: another chain or arm of the molecule; small tags and cut ends)
VL: B1 VL with N30W, N31G, S32Y, S50A, P51S, T52G, G53A, D93N, F94W, L96I
VH: B2 VH
B10: CD26-04A scFv (scFv, part only; not given: VL-VH linker and detection tag, V domains shown, not shown: another chain or arm of the molecule; small tags and cut ends)
VL: DIQMTQSPSSLSASVGDRVTITCRASQDVSGGVAWYQQKPGKAPKLLIYGTSGLYSGVPSRFSGSGSGTDFTLTISSLQPEDFATYYCQQGGDWPITFGQGTKVEIK
VH: B2 VH with T28A, S30N, D31N, H100F, S103Y

The binders below were run against IgG Control (assay: ELISA screen, Plate2, panel IgG).

| ELISA OD450 | Binder |
| --- | --- |
| 0.047 | B1 |
| 0.045 | B2 |
| 0.047 | B3 |

The binders below were run against ProL/A-HRP (assay: ELISA screen, Plate2, panel ProL/ProA-HRP).

| ELISA OD450 | Binder |
| --- | --- |
| 2.74 | B1 |
| 2.71 | B2 |
| 2.73 | B3 |

What follows are binders tested against ProL/A-HRP (assay: ELISA screen GH2 (HHJ), table P1-PrLA, format PrI/scFv/PrA-HRP).

| ELISA OD450 | Binder |
| --- | --- |
| 3.16 | B4 |
| 3.08 | B5 |

These binders were tested against ProL/A-HRP (assay: ELISA screen of scFv clones, plate panel 'ProL/A-HRP' (scFv quality check)).

| ELISA OD450 | Binder |
| --- | --- |
| 3.13 | B6 |
| 3.14 | B7 |
| 3.05 | B8 |
| 3.03 | B9 |
| 3.11 | B10 |

What follows are binders tested against IgG Control (assay: ELISA screen of scFv clones, plate panel 'IgG Control').

| ELISA OD450 | Binder |
| --- | --- |
| 0.05 | B6 |
| 0.045 | B7 |
| 0.051 | B8 |
| 0.046 | B9 |
| 0.069 | B10 |

These binders were tested against Human CD26-Fc fusion protein (human) (assay: ELISA screen of scFv clones, plate panel 'CD26' (CD26-Fc fusion protein per paragraph 510)).
Chain of Human CD26-Fc fusion protein (human) (chain, as listed by the source): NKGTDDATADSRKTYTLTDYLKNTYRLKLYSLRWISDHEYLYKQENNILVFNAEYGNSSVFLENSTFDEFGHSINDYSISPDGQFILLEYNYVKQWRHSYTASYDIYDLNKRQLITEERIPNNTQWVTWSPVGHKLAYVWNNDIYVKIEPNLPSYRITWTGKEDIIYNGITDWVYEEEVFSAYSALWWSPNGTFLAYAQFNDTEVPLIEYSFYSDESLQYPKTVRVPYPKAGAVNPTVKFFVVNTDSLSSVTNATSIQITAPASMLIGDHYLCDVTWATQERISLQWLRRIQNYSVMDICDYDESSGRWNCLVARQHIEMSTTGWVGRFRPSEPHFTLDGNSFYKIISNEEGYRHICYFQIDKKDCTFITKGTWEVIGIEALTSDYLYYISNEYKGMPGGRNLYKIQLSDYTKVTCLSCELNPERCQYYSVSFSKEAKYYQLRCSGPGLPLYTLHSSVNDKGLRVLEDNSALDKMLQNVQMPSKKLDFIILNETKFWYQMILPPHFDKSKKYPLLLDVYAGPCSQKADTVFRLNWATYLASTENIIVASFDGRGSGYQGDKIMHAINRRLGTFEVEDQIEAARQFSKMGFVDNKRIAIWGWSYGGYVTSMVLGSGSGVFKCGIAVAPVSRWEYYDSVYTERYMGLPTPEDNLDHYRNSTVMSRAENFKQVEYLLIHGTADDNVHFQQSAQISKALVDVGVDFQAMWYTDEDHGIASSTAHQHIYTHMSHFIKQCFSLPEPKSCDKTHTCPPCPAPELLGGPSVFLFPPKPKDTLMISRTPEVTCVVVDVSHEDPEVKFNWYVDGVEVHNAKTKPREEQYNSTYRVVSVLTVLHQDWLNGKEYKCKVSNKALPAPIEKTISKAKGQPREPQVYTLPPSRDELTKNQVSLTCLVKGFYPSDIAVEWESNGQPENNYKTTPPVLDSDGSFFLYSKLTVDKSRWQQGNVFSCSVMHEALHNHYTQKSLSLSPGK

| ELISA OD450 | Binder |
| --- | --- |
| 0.948 | B6 |
| 0.68 | B9 |
| 2.92 | B10 |

Each binder was assayed against Human CD26-Fc fusion protein (human) (assay: ELISA screen GH2 (HHJ), table P1-CD26, format CD26/scFv/Etag-HRP).

| ELISA OD450 | Binder |
| --- | --- |
| 3.08 | B4 |
| 3.06 | B5 |

What follows are binders tested against Human CD26-Fc fusion protein (human) (assay: ELISA screen, Plate2, panel CD26).

| ELISA OD450 | Binder |
| --- | --- |
| 2.5 | B1 |
| 1.29 | B2 |
| 2.3 | B3 |

What follows are binders tested against IgG Control (assay: ELISA screen GH2 (HHJ), table P1-IgG, format IgG/scFv/Etag-HRP).

| ELISA OD450 | Binder |
| --- | --- |
| 0.05 | B4 |
| 0.05 | B5 |
